# Results from patent US20080193457A1, “Ra Antigenic Peptides” (priority 2003, published 2008).
# B1: PSMD8 (218-233) (peptide)
# peptide: GPNNYYSFASQQQKPE
# notes: Found as eluted natural peptide and tested as synthetic peptide
# B2: HPX (351-365) (peptide)
# peptide: TPHGIILDSVDAAFI
# notes: Synthetic peptide in the in vitro assay; also called Hemopexin (351-365)
# B3: CYRB (359-375) (peptide)
# peptide: ETMKMRYEHIDHTFEIQ
# notes: as for B1
# B4: GILT (192-205) (peptide)
# peptide: GDRGMQLMHANAQR
# notes: Found as eluted natural peptide and tested as synthetic peptide; also called Interferon-gamma-inducible lysosomal thiol reductase (192-205)
# B5: IL-1R (79-94) (peptide)
# peptide: EKLWFVPAKVEDSGHY
# notes: Found as eluted natural peptide and tested as synthetic peptide; also called Interleukin-1 receptor (79-94)
# How the values were obtained:
# HLA-DRB1*0401 = HLA-DRB1*0401 (Homo sapiens, UniProt P01903+P01911, A100K/A169T/F76Y/I96L/K127E/L162R/M171V/N62H/P40V/Q125Y/R42H/S133A/S149N/S66Y/V115G/V209L/W38E); conditions: reference peptides, literature (Table 1 footnote h); cited from earlier work
# [1] = molecular target: T1, HLA-DR4 molecules (HLA-DRB1*0401), purified, detergent-solubilized (human); test: in vitro competition binding assay: purified HLA-DR4, biotinylated HA(307-319) reporter, synthetic competitor peptide
# T1 construct: mature; The text says HLA-DR4
Molecule,HLA-DRB1*0401 binder (HLA-DRB1*0401),binding result [1]
"M. tuberculosis Hsp65 (3-13) (KTIAYDEEARR; UniProt P9WPE7 3-13, looked up, fragment)",weak HLA-DRB1*0401 binder,
B1,,binds
NVVFVIDKSGSMSG (Synthetic peptide in the in vitro assay) [ITIH4 (274-287)],,binds
GPHDVHVQIETSPPARN (Synthetic peptide in the in vitro assay) [Fig1 (293-309)],,binds
B2,,binds
B3,,binds
B4,,binds
B5,,binds
GSREIKSQQSEVTR (Synthetic peptide in the in vitro assay) [SH3BGRL3 (13-26)],,binds
